Drawing on the Human Domainome abundance scans (Beltran et al. 2025), this text covers abundance fitness for 60 variants.

First the molecules themselves.
B1: Chromodomain-helicase-DNA-binding protein 7, residues 2564 to 2605; numbered along this chain, Q9P2D1 (parent)
chain: DPDTRIPVINLEDGTRLVGEDAPKNKDLVEWLKLHPTYTVDM

± gives the uncertainty stated by the source.

The variants in this data set derive from B1. The data set is described as follows: abundance fitness (aPCA) (normalised: wild type 0, dead -1); higher = more abundant; growth selection in yeast, the domain comes from the species named. The note with it: Homo sapiens.
As to DPDTRIPVINLEDGTRLVGEDWPKNKDLVEWLKLHPTYTVDM [A22W], the abundance fitness is -1.04 ± 0.1. The result for DPDTRIPVINLEDGTRLVGEDVPKNKDLVEWLKLHPTYTVDM [A22V] reads -0.79 ± 0.077; that for DPDTRIPVINLEDGTRLVGEDMPKNKDLVEWLKLHPTYTVDM [A22M], -0.673 ± 0.14; that for DPDTRIPVINLEDGTRLVGEDDPKNKDLVEWLKLHPTYTVDM [A22D], -0.565 ± 0.081. For DPDTRIPVINLEDGTRLVGEDHPKNKDLVEWLKLHPTYTVDM [A22H] the value was -0.306 ± 0.26; for DPDTRIPVINLEDGTRLVGEDRPKNKDLVEWLKLHPTYTVDM [A22R], -0.477 ± 0.052. For the variant DPDTRIPVINLEDGTRLVGEDSPKNKDLVEWLKLHPTYTVDM [A22S], the abundance fitness is -0.358 ± 0.051. For DPDTRIPVINLEDGTRLVGEDNPKNKDLVEWLKLHPTYTVDM [A22N] the value was -0.519 ± 0.062. For DPDTRIPVINLEDGTRLVGEDYPKNKDLVEWLKLHPTYTVDM [A22Y] the value was -1.03 ± 0.09; for DPDTRIPVINLEDGTRLVGEDLPKNKDLVEWLKLHPTYTVDM [A22L], -0.539 ± 0.071. For DPDTRIPVINLEDGTRLVGEDIPKNKDLVEWLKLHPTYTVDM [A22I] the value was -0.483 ± 0.076; for DPDTRIPVINLEDGTRLVGEDCPKNKDLVEWLKLHPTYTVDM [A22C], -0.168 ± 0.057.

Regarding DPDTRIPVINLEDGTRLVGEDFPKNKDLVEWLKLHPTYTVDM [A22F], the abundance fitness was -0.466 ± 0.34. The result for DPDTRIPVINLEDGTRLVGEDEPKNKDLVEWLKLHPTYTVDM [A22E] reads -0.839 ± 0.14; that for DPDTRIPVINLEDGTRLVGEDTPKNKDLVEWLKLHPTYTVDM [A22T], -0.527 ± 0.082. For DPDTRIPVINLEDGTRLVGEDPPKNKDLVEWLKLHPTYTVDM [A22P] the value was -0.622 ± 0.11. For DPDTRIPVINLEDGTRLVGEDARKNKDLVEWLKLHPTYTVDM [P23R], the abundance fitness was -0.843 ± 0.11. For DPDTRIPVINLEDGTRLVGEDAMKNKDLVEWLKLHPTYTVDM [P23M] the value was -0.654 ± 0.25; for DPDTRIPVINLEDGTRLVGEDAIKNKDLVEWLKLHPTYTVDM [P23I], -0.496 ± 0.071; for DPDTRIPVINLEDGTRLVGEDANKNKDLVEWLKLHPTYTVDM [P23N], -0.915 ± 0.15. For DPDTRIPVINLEDGTRLVGEDAFKNKDLVEWLKLHPTYTVDM [P23F] the value was -0.784 ± 0.12; for DPDTRIPVINLEDGTRLVGEDAKKNKDLVEWLKLHPTYTVDM [P23K], -0.515 ± 0.14; for DPDTRIPVINLEDGTRLVGEDACKNKDLVEWLKLHPTYTVDM [P23C], -0.497 ± 0.15. For the variant DPDTRIPVINLEDGTRLVGEDAHKNKDLVEWLKLHPTYTVDM [P23H], the abundance fitness was -0.679 ± 0.081. Turning to DPDTRIPVINLEDGTRLVGEDAEKNKDLVEWLKLHPTYTVDM [P23E], the abundance fitness was -0.684 ± 0.14. DPDTRIPVINLEDGTRLVGEDALKNKDLVEWLKLHPTYTVDM [P23L]: the abundance fitness is -0.725 ± 0.075. DPDTRIPVINLEDGTRLVGEDAWKNKDLVEWLKLHPTYTVDM [P23W]: the abundance fitness was -1.09 ± 0.089. As to DPDTRIPVINLEDGTRLVGEDASKNKDLVEWLKLHPTYTVDM [P23S], the abundance fitness is -0.79 ± 0.06. The result for DPDTRIPVINLEDGTRLVGEDAAKNKDLVEWLKLHPTYTVDM [P23A] reads -1.35 ± 0.21. With DPDTRIPVINLEDGTRLVGEDAVKNKDLVEWLKLHPTYTVDM [P23V], the abundance fitness was -0.658 ± 0.057. The result for DPDTRIPVINLEDGTRLVGEDAYKNKDLVEWLKLHPTYTVDM [P23Y] reads -1.1 ± 0.16; that for DPDTRIPVINLEDGTRLVGEDAQKNKDLVEWLKLHPTYTVDM [P23Q], -0.252 ± 0.14. For DPDTRIPVINLEDGTRLVGEDAPANKDLVEWLKLHPTYTVDM [K24A] the value was -0.022 ± 0.065. The result for DPDTRIPVINLEDGTRLVGSDAPKNKDLVEWLKLHPTYTVDM [E20S] reads -0.159 ± 0.063; that for DPDTRIPVINLEDGTRLVGNDAPKNKDLVEWLKLHPTYTVDM [E20N], -0.167 ± 0.064. For the variant DPDTRIPVINLEDGTRLVGTDAPKNKDLVEWLKLHPTYTVDM [E20T], the abundance fitness is -0.027 ± 0.082. The result for DPDTRIPVINLEDGTRLVGMDAPKNKDLVEWLKLHPTYTVDM [E20M] reads -0.235 ± 0.15; that for DPDTRIPVINLEDGTRLVGRDAPKNKDLVEWLKLHPTYTVDM [E20R], -0.189 ± 0.055. For DPDTRIPVINLEDGTRLVGVDAPKNKDLVEWLKLHPTYTVDM [E20V] the value was -0.195 ± 0.049; for DPDTRIPVINLEDGTRLVGYDAPKNKDLVEWLKLHPTYTVDM [E20Y], -0.395 ± 0.064; for DPDTRIPVINLEDGTRLVGLDAPKNKDLVEWLKLHPTYTVDM [E20L], -0.369 ± 0.088. The result for DPDTRIPVINLEDGTRLVGWDAPKNKDLVEWLKLHPTYTVDM [E20W] reads -0.447 ± 0.075; that for DPDTRIPVINLEDGTRLVGETAPKNKDLVEWLKLHPTYTVDM [D21T], -0.246 ± 0.12.

Consider DPDTRIPVINLEDGTRLVGEPAPKNKDLVEWLKLHPTYTVDM [D21P], for which the abundance fitness was -0.378 ± 0.15. Consider DPDTRIPVINLEDGTRLVGELAPKNKDLVEWLKLHPTYTVDM [D21L], for which the abundance fitness was -0.161 ± 0.075. The result for DPDTRIPVINLEDGTRLVGESAPKNKDLVEWLKLHPTYTVDM [D21S] reads -0.093 ± 0.076; that for DPDTRIPVINLEDGTRLVGEFAPKNKDLVEWLKLHPTYTVDM [D21F], -0.17 ± 0.073. With DPDTRIPVINLEDGTRLVGEEAPKNKDLVEWLKLHPTYTVDM [D21E], the abundance fitness was -0.207 ± 0.11. The result for DPDTRIPVINLEDGTRLVGEKAPKNKDLVEWLKLHPTYTVDM [D21K] reads -0.134 ± 0.068; that for DPDTRIPVINLEDGTRLVGEYAPKNKDLVEWLKLHPTYTVDM [D21Y], -0.165 ± 0.06; that for DPDTRIPVINLEDGTRLVGECAPKNKDLVEWLKLHPTYTVDM [D21C], -0.07 ± 0.091. The result for DPDTRIPVINLEDGTRLVGERAPKNKDLVEWLKLHPTYTVDM [D21R] reads -0.316 ± 0.065; that for DPDTRIPVINLEDGTRLVGENAPKNKDLVEWLKLHPTYTVDM [D21N], -0.054 ± 0.067; that for DPDTRIPVINLEDGTRLVGEVAPKNKDLVEWLKLHPTYTVDM [D21V], -0.508 ± 0.063. As for DPDTRIPVINLEDGTRLVGEHAPKNKDLVEWLKLHPTYTVDM [D21H], the abundance fitness is -0.109 ± 0.079. For DPDTRIPVINLEDGTRLVGEQAPKNKDLVEWLKLHPTYTVDM [D21Q] the value was -0.018 ± 0.17. For DPDTRIPVINLEDGTRLVGEMAPKNKDLVEWLKLHPTYTVDM [D21M] the value was -0.161 ± 0.078. For DPDTRIPVINLEDGTRLVGEAAPKNKDLVEWLKLHPTYTVDM [D21A] the value was -0.279 ± 0.093. For DPDTRIPVINLEDGTRLVGEIAPKNKDLVEWLKLHPTYTVDM [D21I], the abundance fitness was -0.512 ± 0.12. As for DPDTRIPVINLEDGTRLVGEWAPKNKDLVEWLKLHPTYTVDM [D21W], the abundance fitness is -0.442 ± 0.17.
